{"source": "paper PMC4976356", "about": "“Structural insight into β-Clamp and its interaction with DNA Ligase in Helicobacter pylori” (Scientific Reports, 2016)", "origin": "cited, not measured here", "molecules": {"B1": {"name": "ligase from E. coli: E. coli DNA ligase examined for interaction with Ecβ-clamp (ref 10) (protein, UniProt P15042 1-671, looked up)", "DNA ligase": "MESIEQQLTELRTTLRHHEYLYHVMDAPEIPDAEYDRLMRELRELETKHPELITPDSPTQRVGAAPLAAFSQIRHEVPMLSLDNVFDEESFLAFNKRVQDRLKNNEKVTWCCELKLDGLAVSILYENGVLVSAATRGDGTTGEDITSNVRTIRAIPLKLHGENIPARLEVRGEVFLPQAGFEKINEDARRTGGKVFANPRNAAAGSLRQLDPRITAKRPLTFFCYGVGVLEGGELPDTHLGRLLQFKKWGLPVSDRVTLCESAEEVLAFYHKVEEDRPTLGFDIDGVVIKVNSLAQQEQLGFVARAPRWAVAFKFPAQEQMTFVRDVEFQVGRTGAITPVARLEPVHVAGVLVSNATLHNADEIERLGLRIGDKVVIRRAGDVIPQVVNVVLSERPEDTREVVFPTHCPVCGSDVERVEGEAVARCTGGLICGAQRKESLKHFVSRRAMDVDGMGDKIIDQLVEKEYVHTPADLFKLTAGKLTGLERMGPKSAQNVVNALEKAKETTFARFLYALGIREVGEATAAGLAAYFGTLEALEAASIEELQKVPDVGIVVASHVHNFFAEESNRNVISELLAEGVHWPAPIVINAEEIDSPFAGKTVVLTGSLSQMSRDDAKARLVELGAKVAGSVSKKTDLVIAGEAAGSKLAKAQELGIEVIDEAEMLRLLGS"}}, "system": "Ecβ-clamp"}
{"molecule": "B1", "values": [{"measurement": "interaction with E. coli β-clamp (in words)", "result": "interacts with its β-clamp"}]}
